In the supplement of paper PMC10126150:
± gives the standard deviation of the averaged measurements.

System: ATP
Assay: switch fluorescence ratio, 500 uM ATP over buffer (Cy3 cluster intensity, sum of 5 cycles each) (fold (ratio)); higher = stronger signal-on switching upon ATP binding; sequences stand for … in TCGTCGGCAGCGTCAGATGTGTATAAGAGACAGTTTTTTTTTTTTTTTTTTTTTTTTT…TC
Settings: aptamer strand: ATP DNA aptamer (quencher-CACCTGGGGGAGTATTGCGGAGGAAGG + anchor), 100 nM annealed; ATP concentration: 500 uM
Outline: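 Per cluster, summed Cy3 intensity from the target cycles was divided by that from the buffer cycles to give the fluorescence ratio, then averaged per switch-domain sequence. Clusters outside 100-1000 RFU were excluded. The Cy3-labelled switching-strand clusters, on a modified Illumina MiSeq flow-cell, were annealed to 100 nM quencher-labelled ATP aptamer and imaged in selection buffer, then after 15 min with 500 uM ATP at 22 °C, for five cycles with NaOH stripping and re-annealing between them.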
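Also: ATP exposure 15 min at 22 °C before imaging.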

TTCGAAGGGT
switch fluorescence ratio: 1.09 ± 0.1

TTCGAATGTG
switch fluorescence ratio: 1.01 ± 0.028

TTCGAATTGT
switch fluorescence ratio: 0.976 ± 0.037

TTCGATAGCA
switch fluorescence ratio: 1.06 ± 0.058

TTCGCGGCTA
switch fluorescence ratio: 1.07 ± 0.016

TTCGCGTTTT
switch fluorescence ratio: 1.02 ± 0.04

TTCGGACGT
switch fluorescence ratio: 1.02 ± 0.013

TTCGGAGAAT
switch fluorescence ratio: 1.16 ± 0.23

TTCGGATGAG
switch fluorescence ratio: 0.977 ± 0.041

TTCGGATGGG
switch fluorescence ratio: 1 ± 0.034

TTCGGCCACG
switch fluorescence ratio: 1.01 ± 0.036

TTCGGGAACT
switch fluorescence ratio: 1 ± 0.038

TTCGGGAGTG
switch fluorescence ratio: 0.985 ± 0.02

TTCGGGATGA
switch fluorescence ratio: 1 ± 0.056

TTCGGGCGGA
switch fluorescence ratio: 0.98 ± 0.011

TTCGGGGCAT
switch fluorescence ratio: 1.05 ± 0.097

TTCGGGGCCA
switch fluorescence ratio: 0.991 ± 0.013

TTCGGGGGT
switch fluorescence ratio: 0.983 ± 0.024

TTCGGGGGTG
switch fluorescence ratio: 1.01 ± 0.031

TTCGGGTCCG
switch fluorescence ratio: 0.988 ± 0.067

TTCGGGTTAA
switch fluorescence ratio: 1.05 ± 0.017

TTCGGTAGTG
switch fluorescence ratio: 0.9923 ± 0.0083

TTCGGTCCGT
switch fluorescence ratio: 0.981 ± 0.026

TTCGGTCGTA
switch fluorescence ratio: 1.01 ± 0.053

TTCGGTGGGA
switch fluorescence ratio: 1.07 ± 0.02

TTCGGTTAGA
switch fluorescence ratio: 1.02 ± 0.015

TTCGGTTGGA
switch fluorescence ratio: 0.984 ± 0.017

TTCGTAACGC
switch fluorescence ratio: 1.03 ± 0.038

TTCGTAATGT
switch fluorescence ratio: 1.036 ± 0.0083

TTCGTAGCAG
switch fluorescence ratio: 1.23 ± 0.063

TTCGTCATGG
switch fluorescence ratio: 1.027 ± 0.0075

TTCGTCGGGC
switch fluorescence ratio: 0.9863 ± 0.0071

TTCGTGACCT
switch fluorescence ratio: 1.1 ± 0.094

TTCGTGGTTT
switch fluorescence ratio: 1.032 ± 0.0055

TTCGTTACAG
switch fluorescence ratio: 0.998 ± 0.027

TTCGTTGAAT
switch fluorescence ratio: 0.97 ± 0.024

TTCGTTTAAT
switch fluorescence ratio: 0.9989 ± 0.0017

TTCGTTTACA
switch fluorescence ratio: 1.01 ± 0.028

TTCGTTTGCT
switch fluorescence ratio: 0.955 ± 0.035

TTCGTTTTGT
switch fluorescence ratio: 0.9975 ± 0.0097

TTCGTTTTTT
switch fluorescence ratio: 0.985 ± 0.047

TTCTAAAGAT
switch fluorescence ratio: 0.969 ± 0.034

TTCTAAAGGT
switch fluorescence ratio: 1.02 ± 0.04

TTCTAAGGGA
switch fluorescence ratio: 1.01 ± 0.023

TTCTAAGGTC
switch fluorescence ratio: 0.978 ± 0.036

TTCTAATCCG
switch fluorescence ratio: 1.036 ± 0.0091

TTCTACGGGC
switch fluorescence ratio: 1.11 ± 0.025

TTCTACTAGT
switch fluorescence ratio: 0.98 ± 0.024

TTCTATAATT
switch fluorescence ratio: 1.03 ± 0.02

TTCTATATTT
switch fluorescence ratio: 1.01 ± 0.055

TTCTATGGAA
switch fluorescence ratio: 1.01 ± 0.016

TTCTATGGTG
switch fluorescence ratio: 1 ± 0.04

TTCTATTTGA
switch fluorescence ratio: 1.0138 ± 0.00028

TTCTCAATGT
switch fluorescence ratio: 1.08 ± 0.14

TTCTCAGGGG
switch fluorescence ratio: 1.12 ± 0.038

TTCTCAGTTT
switch fluorescence ratio: 1.15 ± 0.22

TTCTCATTGG
switch fluorescence ratio: 0.9893 ± 0.0039

TTCTCGGCCC
switch fluorescence ratio: 1.11 ± 0.019

TTCTCGTTCT
switch fluorescence ratio: 0.996 ± 0.045

TTCTGAAACA
switch fluorescence ratio: 0.969 ± 0.036

TTCTGAGAAT
switch fluorescence ratio: 1.042 ± 0.0044

TTCTGCGTAT
switch fluorescence ratio: 1.01 ± 0.036

TTCTGCTATC
switch fluorescence ratio: 1.79 ± 0.12

TTCTGGAAAT
switch fluorescence ratio: 0.994 ± 0.016

TTCTGGCAAT
switch fluorescence ratio: 2.97 ± 0.14

TTCTGTACGG
switch fluorescence ratio: 1.02 ± 0.014

TTCTGTAGCG
switch fluorescence ratio: 1.06 ± 0.13

TTCTGTGTGG
switch fluorescence ratio: 0.981 ± 0.011

TTCTGTTATC
switch fluorescence ratio: 1.023 ± 0.0087

TTCTGTTTTA
switch fluorescence ratio: 1.05 ± 0.021

TTCTTAGATG
switch fluorescence ratio: 1.016 ± 0.0088

TTCTTAGCCG
switch fluorescence ratio: 1.0545 ± 0.00031

TTCTTAGGGA
switch fluorescence ratio: 0.9863 ± 0.0054

TTCTTCGACA
switch fluorescence ratio: 1.08 ± 0.034

TTCTTGGAAT
switch fluorescence ratio: 0.969 ± 0.049

TTCTTGGGAT
switch fluorescence ratio: 1 ± 0.019

TTCTTGTCGG
switch fluorescence ratio: 0.984 ± 0.027

TTCTTTACGG
switch fluorescence ratio: 0.986 ± 0.026

TTCTTTAGGG
switch fluorescence ratio: 1.16 ± 0.26

TTCTTTATGT
switch fluorescence ratio: 0.999 ± 0.021

TTCTTTGGAT
switch fluorescence ratio: 1.03 ± 0.028

TTCTTTGGCT
switch fluorescence ratio: 0.977 ± 0.018

TTCTTTTACT
switch fluorescence ratio: 1.01 ± 0.023

TTCTTTTTAG
switch fluorescence ratio: 0.9793 ± 0.0051

TTGAAAAATG
switch fluorescence ratio: 1.03 ± 0.028

TTGAAACAGA
switch fluorescence ratio: 0.985 ± 0.038

TTGAAAGGGG
switch fluorescence ratio: 0.996 ± 0.083

TTGAAAGTTC
switch fluorescence ratio: 1 ± 0.077

TTGAAATAAT
switch fluorescence ratio: 1.1 ± 0.14

TTGAAGAAAC
switch fluorescence ratio: 1.04 ± 0.018

TTGAAGCAAA
switch fluorescence ratio: 1.44 ± 0.37

TTGAAGGAGA
switch fluorescence ratio: 1.01 ± 0.021

TTGAAGGCTT
switch fluorescence ratio: 0.997 ± 0.013

TTGAAGTAGC
switch fluorescence ratio: 1.01 ± 0.044

TTGAATAAGA
switch fluorescence ratio: 1 ± 0.071

TTGAATCAAG
switch fluorescence ratio: 1.01 ± 0.041

TTGAATCCAT
switch fluorescence ratio: 1.01 ± 0.019

TTGAATTAAC
switch fluorescence ratio: 1.03 ± 0.06

TTGAATTCGG
switch fluorescence ratio: 0.9841 ± 0.0039

TTGAATTTGG
switch fluorescence ratio: 0.9794 ± 0.0085

TTGAATTTTC
switch fluorescence ratio: 1.02 ± 0.061

TTGACAGCGA
switch fluorescence ratio: 1.22 ± 0.061

TTGACAGGCA
switch fluorescence ratio: 0.968 ± 0.012

TTGACATGGG
switch fluorescence ratio: 1 ± 0.029

TTGACGGGAG
switch fluorescence ratio: 0.997 ± 0.027

TTGACGTAAA
switch fluorescence ratio: 1.61 ± 0.56

TTGACGTTGC
switch fluorescence ratio: 1.01 ± 0.033

TTGAGAATCC
switch fluorescence ratio: 1.007 ± 0.0087

TTGAGAGATT
switch fluorescence ratio: 1.011 ± 0.0091

TTGAGAGGAG
switch fluorescence ratio: 0.98 ± 0.02

TTGAGATTAT
switch fluorescence ratio: 0.986 ± 0.015

TTGAGATTGG
switch fluorescence ratio: 0.998 ± 0.03

TTGAGCACGG
switch fluorescence ratio: 0.998 ± 0.019

TTGAGCAGCT
switch fluorescence ratio: 1.08 ± 0.085

TTGAGGCAGG
switch fluorescence ratio: 1.027 ± 0.0065

TTGAGGCCCA
switch fluorescence ratio: 1.17 ± 0.22

TTGAGGCCTT
switch fluorescence ratio: 1.01 ± 0.022

TTGAGGGCTT
switch fluorescence ratio: 0.998 ± 0.025

TTGAGGGGAT
switch fluorescence ratio: 1.004 ± 0.0059

TTGAGGGTCC
switch fluorescence ratio: 1.004 ± 0.0056

TTGAGGTACG
switch fluorescence ratio: 1.03 ± 0.082

TTGAGGTTA
switch fluorescence ratio: 1.07 ± 0.069

TTGAGTGTGT
switch fluorescence ratio: 0.9604 ± 0.0023

TTGAGTTAC
switch fluorescence ratio: 1.03 ± 0.06

TTGAGTTTTA
switch fluorescence ratio: 1.01 ± 0.021

TTGATAAAAA
switch fluorescence ratio: 0.998 ± 0.083

TTGATAAGTT
switch fluorescence ratio: 0.9751 ± 0.0069

TTGATAATCT
switch fluorescence ratio: 1 ± 0.026

TTGATACAGG
switch fluorescence ratio: 1.29 ± 0.37

TTGATCAGGG
switch fluorescence ratio: 0.989 ± 0.042

TTGATCCAGT
switch fluorescence ratio: 0.997 ± 0.031

TTGATCTCGG
switch fluorescence ratio: 1.014 ± 0.0061

TTGATCTCTT
switch fluorescence ratio: 1.01 ± 0.026

TTGATGCGGT
switch fluorescence ratio: 1.04 ± 0.042

TTGATTAATT
switch fluorescence ratio: 0.9925 ± 0.0099

TTGATTAGTA
switch fluorescence ratio: 0.97 ± 0.028

TTGATTCATG
switch fluorescence ratio: 0.999 ± 0.04

TTGATTGACA
switch fluorescence ratio: 1 ± 0.043

TTGATTGATT
switch fluorescence ratio: 0.9916 ± 0.0055

TTGATTTAAT
switch fluorescence ratio: 1 ± 0.028

TTGATTTCAG
switch fluorescence ratio: 1.01 ± 0.013

TTGCAAATTT
switch fluorescence ratio: 1.79 ± 1.4

TTGCAATTCG
switch fluorescence ratio: 3.05 ± 2.5

TTGCAGATTT
switch fluorescence ratio: 0.985 ± 0.028

TTGCAGTAAT
switch fluorescence ratio: 1.87 ± 1.1

TTGCATGGGA
switch fluorescence ratio: 0.992 ± 0.018

TTGCCACTGA
switch fluorescence ratio: 1.02 ± 0.013

TTGCCATTGG
switch fluorescence ratio: 0.9905 ± 0.0062

TTGCCGTGTA
switch fluorescence ratio: 1.02 ± 0.031

TTGCCTTTCG
switch fluorescence ratio: 0.97 ± 0.041

TTGCGCCGC
switch fluorescence ratio: 1.138 ± 0.0037

TTGCGCGCTA
switch fluorescence ratio: 0.98 ± 0.054

TTGCGCTATT
switch fluorescence ratio: 1.07 ± 0.018

TTGCGGGGTT
switch fluorescence ratio: 1.14 ± 0.15

TTGCGGTATG
switch fluorescence ratio: 0.986 ± 0.022

TTGCGTGGTG
switch fluorescence ratio: 0.959 ± 0.077

TTGCGTTTGA
switch fluorescence ratio: 1.008 ± 0.005

TTGCGTTTTG
switch fluorescence ratio: 0.991 ± 0.057

TTGCTAAAGC
switch fluorescence ratio: 1.038 ± 0.0054

TTGCTACTGT
switch fluorescence ratio: 0.983 ± 0.018

TTGCTCCTGT
switch fluorescence ratio: 0.9965 ± 0.0019

TTGCTCTGGG
switch fluorescence ratio: 0.974 ± 0.019

TTGCTCTGTT
switch fluorescence ratio: 0.988 ± 0.023

TTGCTGGAAT
switch fluorescence ratio: 1.06 ± 0.095

TTGCTGTTTG
switch fluorescence ratio: 1 ± 0.034

TTGCTTAAAA
switch fluorescence ratio: 0.9852 ± 0.0095

TTGCTTACAT
switch fluorescence ratio: 1.02 ± 0.021

TTGCTTCCGT
switch fluorescence ratio: 1.1 ± 0.084

TTGCTTTGGG
switch fluorescence ratio: 1.01 ± 0.018

TTGCTTTGTT
switch fluorescence ratio: 1.0015 ± 0.001

TTGGAAAAT
switch fluorescence ratio: 0.967 ± 0.013

TTGGAAGGAC
switch fluorescence ratio: 1.03 ± 0.013

TTGGAAGGGA
switch fluorescence ratio: 1 ± 0.015

TTGGAATAGA
switch fluorescence ratio: 0.999 ± 0.05

TTGGAATGTT
switch fluorescence ratio: 0.952 ± 0.043

TTGGAATTTA
switch fluorescence ratio: 1 ± 0.016

TTGGACATGC
switch fluorescence ratio: 1.06 ± 0.14

TTGGAGACGG
switch fluorescence ratio: 1.023 ± 0.0012

TTGGAGAGAA
switch fluorescence ratio: 0.974 ± 0.022

TTGGAGGGAG
switch fluorescence ratio: 0.999 ± 0.043

TTGGAGGGGG
switch fluorescence ratio: 1.01 ± 0.039

TTGGAGGGTG
switch fluorescence ratio: 1.005 ± 0.01

TTGGAGGTTA
switch fluorescence ratio: 0.973 ± 0.017

TTGGAGTGTT
switch fluorescence ratio: 0.999 ± 0.026

TTGGAGTTTT
switch fluorescence ratio: 1.01 ± 0.038

TTGGATGAAA
switch fluorescence ratio: 1.03 ± 0.076

TTGGATGGAA
switch fluorescence ratio: 0.984 ± 0.023

TTGGATGTAC
switch fluorescence ratio: 1.14 ± 0.15

TTGGATGTTG
switch fluorescence ratio: 1.01 ± 0.034

TTGGATTTAG
switch fluorescence ratio: 0.998 ± 0.0044

TTGGATTTTC
switch fluorescence ratio: 1.04 ± 0.032

TTGGCACAGT
switch fluorescence ratio: 1.008 ± 0.0048

TTGGCAGGCC
switch fluorescence ratio: 1.017 ± 0.0074

TTGGCGGGGA
switch fluorescence ratio: 0.987 ± 0.054

TTGGCGGGTT
switch fluorescence ratio: 1.008 ± 0.0062

TTGGCTACAA
switch fluorescence ratio: 0.985 ± 0.037

TTGGCTGTGC
switch fluorescence ratio: 1.02 ± 0.019

TTGGCTTCAT
switch fluorescence ratio: 0.968 ± 0.016

TTGGCTTTAT
switch fluorescence ratio: 0.982 ± 0.04

TTGGGAAATG
switch fluorescence ratio: 0.985 ± 0.042
